{"source": "patent US20250250297A1", "about": "“CO-ASSEMBLED PEPTIDE GRANULES FOR INTRACELLULAR PROTEIN DELIVERY” (University of Florida Research Foundation, Incorporated, priority 2022, published 2025)", "molecules": {"B1": {"name": "CATCH(-) peptide, Ac-EQEFEFEFEQE-Am (peptide)", "peptide": "Ac-EQEFEFEFEQE-NH2", "notes": "Synthetic anionic variant of Q11; also called CATCH(6-); CATCH (6-)"}, "B2": {"name": "CATCH(+) peptide, Ac-QQKFKFKFKQQ-Am (peptide)", "peptide": "Ac-QQKFKFKFKQQ-NH2", "notes": "Synthetic cationic variant of Q11; also called CATCH(4+); CATCH (4+)"}, "B3": {"name": "mCATCH(+) peptide, Ac-QQKPKPKPKQQ-Am (peptide)", "peptide": "Ac-QQKPKPKPKQQ-NH2", "notes": "Proline residues replace the phenylalanine residues of CATCH(+); also called mutant of CATCH(+)"}}, "key": {"[1]": {"conditions": "aqueous media; cited from earlier work"}, "cells": {"tested_on": "cells", "test": "Delivery of granules comprising three co-assembling peptides; FACS sorting and NanoLuciferase activity", "format": "cell-based", "conditions": "for delivery into cells via granules of three co-assembling peptides: granules with CATCH(6+) and two distinct CATCH(6−) fusion peptides", "description": "Therein, the ability of cells to take up granules comprising three co-assembling peptides (e.g., a CATCH(6+) and two distinct CATCH(6−) fusion peptides comprising different fluorescent or colorimetric markers) was tested. […] Subsequent fluorescent-activated cell sorting (FACS) procedures were used to sort GFP-positive cells."}, "[2]": {"test": "Protein incorporation into macroscopic hydrogels (GFP retention under excess 1×PBS)", "format": "physicochemical", "description": "Macroscopic Hydrogel Formation. A 12 mM stock solution of CATCH(−) was prepared by dissolving dry peptide in 1×PBS and adjusting the pH to ˜7.6 with ammonium bicarbonate (Fisher). A 12 mM stock solution of CATCH(+) was prepared by dissolving dry peptide in 1×PBS and adjusting the pH to ˜7.2 with hydrochloric acid (0.5 N Fisher). CATCH peptide stock solutions were combined at a 1:1 (v/v) ratio in a 0.2 mL glass vial (Thermo), and the vial was gently swirled for 2 min until the hydrogel formed. The hydrogel was stained with red food coloring to aid visualization. Hydrogel images were recorded using a digital still camera.\nProtein Incorporation into Macroscopic Hydrogels. […] Immediately after hydrogel formation, fluorescence was visualized by placing the glass vials on a SafeImager 2.0 transilluminator (Invitrogen) and recording images with a digital still camera. […] At various time points, fluorescence in the buffer supernatant was visualized by placing the glass vials on a SafeImager 2.0 transilluminator (Invitrogen) and recording images with a digital still camera. At the endpoint, buffer supernatant was carefully removed by decanting and fluorescence was visualized by placing the glass vials on a SafeImager 2.0 transilluminator (Invitrogen) and recording images with a digital still camera."}, "cells in vitro": {"tested_on": "cells in vitro", "test": "Granule uptake compared to cell-penetrating peptide (L17E and Pep-1) uptake; CATCH(6+) titration; cell count", "format": "cell-based"}, "[3]": {"test": "Granule formation with molar excess of positive peptide: effect of concentration, ion content and pH", "format": "physicochemical", "conditions": "molar excess of CATCH(6+) relative to CATCH(6−)-GFP", "description": "This example describes the effect on granule formation of using positive peptides in molar excess relative to negative peptides. Samples comprising molar excess of positive peptide (e.g., CATCH(6+)) relative to negative peptide (e.g., CATCH(6−)-GFP) were prepared and granule formation was measured after peptide co-assembly (see FIG. 61). […] Therein, the effect of sample ion content on granule formation was tested. Samples comprised 2 mM CATCH(6+) or CATCH(4+) and 30 μM CATCH(6−)-GFP."}, "[4]": {"target": "the molecule itself", "test": "TEM; circular dichroism also showed predominantly random coil when incubated alone"}, "[5]": {"target": "B3", "test": "ThT fluorimetry, equimolar mixture in 1x PBS", "description": "(§1) Thioflavin T (ThT) Assay. A ThT stock solution containing 0.8 mg/mL of thioflavin T (Acros) in 1× phosphate-buffered saline (PBS) (137 mM NaCl, 2.7 mM KCl, 10 mM Na₂HPO₄ and 1.8 mM KH₂PO₄, pH 7.4) was filtered through a 0.22 μm syringe filter (Millex), and further diluted 1:10 with 1×PBS to create a working solution. Peptide samples were mixed with the ThT working solution at a 1:10 (v/v) ratio, added to a black 96-well plate (Corning), and analyzed with a Molecular Devices SpectraMax M3 spectrophotometer (excitation 450, emission 482 nm). All samples were run in triplicate, with the mean and standard deviation of these samples reported."}, "[6]": {"target": "T1, mCATCH(-) peptide, Ac-EQEPEPEPEQE-Am", "T1 construct": "Proline residues replace the phenylalanine residues of CATCH(-); also called mutant of CATCH(-)", "T1 peptide": "Ac-EQEPEPEPEQE-NH2", "test": "ThT fluorimetry, equimolar mixture in 1x PBS", "description": "as §1"}, "[7]": {"target": "T1, mCATCH(-) peptide, Ac-EQEPEPEPEQE-Am", "test": "ThT fluorimetry, kinetic analysis"}}, "note": "No end group written: not given here."}
{"molecule": "Ac-QQKFQFQFEQQ-Am (Ac-QQKFQFQFEQQ-NH2) [Q11]", "values": [{"measurement": "concentration at which peptide self-assembles into β-sheet nanofibers", "setting": "[1]", "value": "~10", "unit": "µM"}]}
{"molecule": "CATCH(−)GFP: recombinant fusion of CATCH(−) and superfolder green fluorescent protein (GFP)", "values": [{"measurement": "delivery into cells via granules of three co-assembling peptides", "setting": "cells", "value": "delivered into cells"}, {"measurement": "fluorescence of CATCH hydrogels after incubation under volumetric excess of 1×PBS", "setting": "[2]; 48 h, hydrogel from 12 mM CATCH(+) and CATCH(−)", "value": "retained their fluorescence"}, {"measurement": "GFP in the buffer layer over hydrogels", "setting": "[2]; up to 48 h under excess 1×PBS", "value": "no GFP was detected"}]}
{"molecule": "KQKFKFKFKQK [CATCH(6+)]", "values": [{"measurement": "effect of titration of peptide concentration on number of transduced cells", "setting": "cells in vitro", "value": "enabled control on the number of transduced cells"}, {"measurement": "granule size by scanning electron microscopy at higher positive peptide concentrations", "setting": "[3]", "value": "larger granules"}]}
{"molecule": "CATCH(6−)-mRuby: CATCH(6−) fusion peptide with fluorescent marker mRuby (EQEFEFEFEQE; not fully specified (C-terminus); also: fusion with mRuby, not in chain)", "values": [{"measurement": "delivery into cells via granules of three co-assembling peptides", "setting": "cells", "value": "delivered into cells"}]}
{"molecule": "CATCH(6−)-NanoLuciferase: CATCH(6−) fusion with NanoLuciferase (EQEFEFEFEQE; not fully specified (C-terminus); also: fusion with NanoLuciferase, not in chain)", "values": [{"measurement": "NanoLuciferase activity in sorted GFP-positive cells", "setting": "cells; after FACS, granules with CATCH(6−)-GFP and CATCH(6−)-NanoLuciferase", "value": "high levels"}, {"measurement": "delivery into cells via granules of three co-assembling peptides", "setting": "cells", "value": "successfully delivered into cells"}]}
{"molecule": "B1", "values": [{"measurement": "binding result", "setting": "[4]", "value": "no binding"}, {"measurement": "binding result", "setting": "[5]", "value": "no binding"}]}
{"molecule": "B2", "values": [{"measurement": "binding result", "setting": "[4]", "value": "no binding"}, {"measurement": "binding result", "setting": "[6]", "value": "no binding"}]}
{"molecule": "B3", "values": [{"measurement": "binding result", "setting": "[7]", "value": "no binding"}]}
